Results reported in patent US20070265189A1 (published 2007).

Legend:
[1] = biological target: T1, soluble human insulin receptor-immunoglobulin heavy chain chimera (sIR-Fc; Bass et al., 1996) (human, UniProt P06213 28-956, limits assumed); assay: phage ELISA
T1 construct: extracellular domain; also called soluble IR (Bass construct); not shown: immunoglobulin heavy chain constant domains

[2] = biological target: T2, Soluble IGF-1R (sIGF-1R), R&D Systems Cat. # 391-GR/CF (UniProt P08069 31-935, limits assumed); assay: phage ELISA
T2 construct: extracellular domain

B1: H2CA-2-B9-IGFR (peptide)
peptide: RAGSSDFHEDFYEWFVRQVSLSLKGK
IR/IGF-1R comparison [1]: 0.2 | Ratio over Background [1]: 1.7 | IGF-1R/IR comparison [2]: 4.2 | Ratio over Background [2]: 7

B2: H2CA-4-G11-IGFR (peptide)
peptide: TLDGGSFEEQFYDWFVRQLSYRTNPD
IR/IGF-1R comparison [1]: 0.3 | Ratio over Background [1]: 2.5 | IGF-1R/IR comparison [2]: 3.9 | Ratio over Background [2]: 9.5

B3: H2CA-4-H4-IGFR (peptide)
peptide: QAVQPGFHEEFYDWFVRQVSTGVGGG
IR/IGF-1R comparison [1]: 0.2 | Ratio over Background [1]: 1 | IGF-1R/IR comparison [2]: 4.2 | Ratio over Background [2]: 4.1

B4: H2CA-1-A3-IGFR (peptide)
peptide: APDPSDFQEIFYDWFVRQVSRMPGGG
IR/IGF-1R comparison [1]: 0.2 | Ratio over Background [1]: 0.8 | IGF-1R/IR comparison [2]: 5.1 | Ratio over Background [2]: 3.8

B5: H2CA-3-D6-IGFR (peptide)
peptide: QSPVGSSHEDFYDWFFRQVAQSGAHQ
IR/IGF-1R comparison [1]: 0.3 | Ratio over Background [1]: 2.2 | IGF-1R/IR comparison [2]: 4 | Ratio over Background [2]: 9

B6: B6Hα-2-D6-IR (peptide)
peptide: GRTMAVMAAGGPDDPFYHKLSELVQGG
IR/IGF-1R comparison [1]: 0.2 | Ratio over Background [1]: 1 | IGF-1R/IR comparison [2]: 4.4 | Ratio over Background [2]: 4.4

B7: H2CA-3-D8-IGFR (peptide)
peptide: NYRRQVFNGNFYDWFDRQVFSLVTPG
IR/IGF-1R comparison [1]: 0.3 | Ratio over Background [1]: 1.8 | IGF-1R/IR comparison [2]: 4 | Ratio over Background [2]: 7.2

B8: B6Hα-1-A3-IR (peptide)
peptide: SRAKVEAEMPDSGDPFYHKLSELLASG
IR/IGF-1R comparison [1]: 0.3 | Ratio over Background [1]: 0.8 | IGF-1R/IR comparison [2]: 3.3 | Ratio over Background [2]: 2.6

B9: H2CA-4-F10-IGFR (peptide)
peptide: VNQSGSIHENFYDWFERQVSHQRGVR
IR/IGF-1R comparison [1]: 0.2 | Ratio over Background [1]: 1 | IGF-1R/IR comparison [2]: 5.9 | Ratio over Background [2]: 5.7

B10: B6Hα-3-E8-IR (peptide)
peptide: RGKTAAVIVGRPADPFYHKLSELLQGG
IR/IGF-1R comparison [1]: 0.2 | Ratio over Background [1]: 1.1 | IGF-1R/IR comparison [2]: 4.8 | Ratio over Background [2]: 5.3

B11: 20E2A-3-D10-IGFR (peptide)
peptide: MMVVDGFYDALHQLVVAQSLG
IR/IGF-1R comparison [1]: 0.3 | Ratio over Background [1]: 1.8 | IGF-1R/IR comparison [2]: 3.9 | Ratio over Background [2]: 6.9

B12: H2CA-3-C8-IGFR (peptide)
peptide: SSCDGAGHESFYEWFVRQVSGCRSV
IR/IGF-1R comparison [1]: 0.2 | Ratio over Background [1]: 1.2 | IGF-1R/IR comparison [2]: 4.8 | Ratio over Background [2]: 5.6

B13: E4Dα-4-H2-IR (peptide)
peptide: GFREGNFYEWFQAQVT
IR/IGF-1R comparison [1]: 0.2 | Ratio over Background [1]: 8.2 | IGF-1R/IR comparison [2]: 4.1 | Ratio over Background [2]: 33.9

B14: B6Hα-3-E7-IR (peptide)
peptide: GCAVVEEAERSRGDPFYHKLSELIQGC
IR/IGF-1R comparison [1]: 0.2 | Ratio over Background [1]: 1.3 | IGF-1R/IR comparison [2]: 4.3 | Ratio over Background [2]: 5.6

B15: H2CA-1-A7-IGFR (peptide)
peptide: RCGRELYHSTFYDWFDRQVAGRTCPS
IR/IGF-1R comparison [1]: 0.3 | Ratio over Background [1]: 0.6 | IGF-1R/IR comparison [2]: 3.7 | Ratio over Background [2]: 2.2

B16: H2CA-3-D7-IGFR (peptide)
peptide: LRRQAPVEENFYDWFVRQVSGDRVGG
IR/IGF-1R comparison [1]: 0.3 | Ratio over Background [1]: 0.8 | IGF-1R/IR comparison [2]: 3.7 | Ratio over Background [2]: 3

B17: H2CA-2-B4-IGFR (peptide)
peptide: CCLLCRFQQNFYDWFVCQGISRLRPL
IR/IGF-1R comparison [1]: 0.3 | Ratio over Background [1]: 1.1 | IGF-1R/IR comparison [2]: 3.6 | Ratio over Background [2]: 4.1

B18: B6Hα-4-G8-IR (peptide)
peptide: GGTKAVAKVGTRDDPFYHKLSELLQGS
IR/IGF-1R comparison [1]: 0.3 | Ratio over Background [1]: 1.7 | IGF-1R/IR comparison [2]: 3.6 | Ratio over Background [2]: 6.1

B19: H2CA-2-B3-IGFR (peptide)
peptide: PPLASDLDVQFYGWFVQQVSPPGRGG
IR/IGF-1R comparison [1]: 0.3 | Ratio over Background [1]: 1 | IGF-1R/IR comparison [2]: 3.6 | Ratio over Background [2]: 3.8

B20: B6Hα-2-D1-IR (peptide)
peptide: GCEVIVEEGDSADPFYHKLSELCQGS
IR/IGF-1R comparison [1]: 0.2 | Ratio over Background [1]: 1.3 | IGF-1R/IR comparison [2]: 4.2 | Ratio over Background [2]: 5.4

B21: B6L-4-D7-IR (peptide)
peptide: AETSVQVGWIRLQSVWPGEHWNTVDPFYHKLSELLRGSGA
IR/IGF-1R comparison [1]: 0.3 | Ratio over Background [1]: 1.4 | IGF-1R/IR comparison [2]: 3.4 | Ratio over Background [2]: 4.8

B22: H2CA-4-F7-IGFR (peptide)
peptide: SSIGGGFHENFYDWFSRQLSQSPPLK
IR/IGF-1R comparison [1]: 0.2 | Ratio over Background [1]: 0.8 | IGF-1R/IR comparison [2]: 4.1 | Ratio over Background [2]: 3.2

B23: B6Hα-3-F10-IR (peptide)
peptide: GCVVEWQKWHGASDPFYHKLSELGGCS
IR/IGF-1R comparison [1]: 0.2 | Ratio over Background [1]: 1.9 | IGF-1R/IR comparison [2]: 4.6 | Ratio over Background [2]: 8.8

B24: H2CA-4-F1-IGFR (peptide)
peptide: FYVQQWGHENFYDWFDRQVSQSGGAG
IR/IGF-1R comparison [1]: 0.3 | Ratio over Background [1]: 0.9 | IGF-1R/IR comparison [2]: 3.8 | Ratio over Background [2]: 3.5

B25: 20E2A-3-A12-IGFR (peptide)
peptide: LSVALSFYDALGQLVAGEGRW
IR/IGF-1R comparison [1]: 0.3 | Ratio over Background [1]: 1.1 | IGF-1R/IR comparison [2]: 3.9 | Ratio over Background [2]: 4.3

B26: H2CA-4-G9-IGFR (peptide)
peptide: GIISQSCPESFYDWFAGQVSDPWWCW
IR/IGF-1R comparison [1]: 0.1 | Ratio over Background [1]: 0.6 | IGF-1R/IR comparison [2]: 16 | Ratio over Background [2]: 9.5
